Where a chain is given by its changes, count along the chain named. Names may count otherwise.
B1: B. megaterium levansucrase (Priestia megaterium DSM 319; K373H) (protein)
chain: KGNDSKDFNNSYGISHITRDNMVKIPQQQNSDQFKVPAFDESTIKNIASAKGKNASGNTIDLDVWDSWPLQNADGTVATYHGYQIVFALAGDPKDSNDTSVYLFYKKAGDKSIDSWKNAGRVFKDSDKFVPNDPHLKNQTQEWSGSGTLTKDGKVRLFYTDYSGKQYGKQTLTTAQVNMSQPNDNTLKVDGVEDYKSIFDGDGKIYQTVQQFIDEGGYDTGDNHTLRDPHYIEDNGHKYLVFEANTGTEDGYQGEDSLYNRAYYGGNNPFFQSEKKKLLEGSNKEKASLANGALGIIELNDDYTLKKVMKPLITSNTVTDEIERANIFKKDGKWYLFTDSRGSHMTIDGIGQDDVYMLGYVSNTLTGKYKPLNDTGLVLHMDLDPNDKTFTYSHFAVPQTKGDNVVITSYMTNRGFYEDNHSTFAPSFLVNIDGSKTSVVKDRVLEQGQLTVDED
notes: recombinant, E. coli BL21(DE3), pRSF-derived vector, purified from cleared lysate on CM sepharose
B2: B. megaterium levansucrase (Priestia megaterium DSM 319; K373L) (protein)
chain: B1 chain with H344L
notes: as for B1

Substrate: OC[C@H]1O[C@@](CO)(O[C@H]2O[C@H](CO)[C@@H](O)[C@H](O)[C@H]2O)[C@@H](O)[C@@H]1O
Assay: initial rates, DNS reducing sugar assay, Michaelis-Menten fit
Type: biochemical, Priestia megaterium
Description: initial rates, DNS reducing sugar assay, Michaelis-Menten fit on B. megaterium levansucrase

[1] = 50 mM Sörensen buffer pH 6.5, variant 1B1, global activity (hydrolysis and transfer)
[2] = 50 mM Sörensen buffer pH 6.5, variant 3C5, global activity (hydrolysis and transfer)

Protein | Km [1] | kcat [1] | kcat/Km [1] | Km [2] | kcat [2] | kcat/Km [2]
B1 | 41.8 ± 6.6 mM | 198 ± 8.4 s⁻¹ | 4720 M⁻¹ s⁻¹ | – | – | –
B2 | – | – | – | 12.5 ± 1.3 mM | 122 ± 2.3 s⁻¹ | 9800 M⁻¹ s⁻¹

— PMC6531494, “Exploring the sequence variability of polymerization-involved residues in the production of levan- and inulin-type fructooligosaccharides with a levansucrase” (Scientific Reports, 2019)
